The values below are quoted from earlier work in article PMC9079180.

This data set addresses tau (Homo sapiens).

Sequence of Hsp70 (P0A6Z0 2-638): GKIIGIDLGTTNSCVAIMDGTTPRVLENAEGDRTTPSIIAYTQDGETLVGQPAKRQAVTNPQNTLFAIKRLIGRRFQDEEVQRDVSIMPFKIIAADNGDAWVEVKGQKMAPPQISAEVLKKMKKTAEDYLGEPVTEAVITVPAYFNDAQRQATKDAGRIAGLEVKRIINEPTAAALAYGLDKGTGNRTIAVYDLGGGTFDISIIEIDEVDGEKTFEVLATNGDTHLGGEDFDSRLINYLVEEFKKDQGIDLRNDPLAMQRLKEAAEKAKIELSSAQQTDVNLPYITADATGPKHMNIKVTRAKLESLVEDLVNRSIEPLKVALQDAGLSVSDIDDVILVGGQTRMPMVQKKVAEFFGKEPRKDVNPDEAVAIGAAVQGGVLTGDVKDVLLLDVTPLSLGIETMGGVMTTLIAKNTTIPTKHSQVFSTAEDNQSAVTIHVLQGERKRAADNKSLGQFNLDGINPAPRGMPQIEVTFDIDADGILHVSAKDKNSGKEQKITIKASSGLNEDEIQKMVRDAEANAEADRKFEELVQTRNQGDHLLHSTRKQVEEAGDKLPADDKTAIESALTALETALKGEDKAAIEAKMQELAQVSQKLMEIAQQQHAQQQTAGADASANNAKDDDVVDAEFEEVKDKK

Broadly, the Kd is the equilibrium constant for the complex coming apart. For the substance Hsp70 (from UniProt P0A6Z0), the Kd was 400 nM.
